Patent US20110059063A1 (Amgen, published 2011)
Residue numbers refer to the chain shown, from its start.

T1: cell surface expressed human PAR-2 (human, UniProt P55085 25-397)
T1 sequence: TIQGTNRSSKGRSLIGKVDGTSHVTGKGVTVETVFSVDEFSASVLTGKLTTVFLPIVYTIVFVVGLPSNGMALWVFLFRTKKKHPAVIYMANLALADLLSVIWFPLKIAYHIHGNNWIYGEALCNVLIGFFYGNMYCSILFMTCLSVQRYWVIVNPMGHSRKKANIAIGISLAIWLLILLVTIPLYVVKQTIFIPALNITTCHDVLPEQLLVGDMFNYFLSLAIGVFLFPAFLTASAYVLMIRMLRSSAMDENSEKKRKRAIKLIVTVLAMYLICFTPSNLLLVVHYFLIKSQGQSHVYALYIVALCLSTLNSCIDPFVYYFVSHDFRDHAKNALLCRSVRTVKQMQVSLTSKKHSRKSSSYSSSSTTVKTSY

B1: anti-PAR-2 antibody 2C6 (antibody, V domains shown)
VH: QVQLVQSGAEVKKPGASVKVSCKASGYTFTGYFFHWVRQAPGQGLEWVGWINPNSGATHFAQKFQGRVTMTRDTSISTAYMELSRLRSDDTAVYYCARDGSNWNRDYGMDVWGQGTTVTVSS
VL: QSVLTQPPSASGTPGQRVTISCSGSSSNIGINHVYWYQQLPGTAPKIFIYRNNQRPSGVPDRFSGSKSGTSASLAISGLRSEDEADYYCAVWDDSLSGVVFGGGTKLTVLG
B2: anti-PAR-2 antibody 1A1 (antibody, V domains shown)
VH: EVQLVQSGAEVKKPGESLKISCKGSGYNFISHWIGWVRQMPGKGLEWMGMIYPGDSDTRYSPSFQGQVTISADKSINTAYLQWRSLKASDTAMYFCARHGGITGTTFYYDFGMDVWGQGTTVTVSS
VL: SYELTQPPSVSVSPGQTARITCSGDALPKQYASWYQQKPGQAPLLVIYRDSERPSGLPERFSGSSSGTTVTLTISGVQAEDEADYYCQSADSGGSYVFGTGTKVTVL
notes: Human antibody from a XenoMouse hybridoma; also called monoclonal antibody 1A1
B3: anti-PAR-2 antibody 1B5 (antibody, V domains shown)
VH: EVQLVQSGAEVKKSGESLKISCKGSGYSFSNYWIGWVRQMPGKGLEWMGIIYPGDSDTRYSPSFQGQVTISADKSIRTAYLQWSSLKASDTAMYYCARHKGITGTTFYYDYGMDVWGQGTTVTVSS
VL: B2 VL with D25E, L44V, S51T, L57I, G93N, S95A, K103R
notes: Human antibody from a XenoMouse hybridoma
B4: anti-PAR-2 antibody 1C7 (antibody, V domains shown)
VH: B3 VH with S14P, S30T, N31S
VL: B2 VL with D25E, L44V, R49K, L57I, G93N, S95A
notes: as for B3
B5: anti-PAR-2 antibody 9B12 (antibody, V domains shown)
VH: QVQLVESGGGVVQPGRSLRLSCAASGFTFSSYGMHWVRQAPGKGLEWVAVIWYDGSNKYYADSVKGRFTISRDNSKNTLYLQMNSLRAEDTAVYYCARDLGAAAGTGFDYWGQGTLVTVSS
VL: QSVLTQPPSVSAAPGQKVTISCSGSSSNIGNNYVSWYQQLPGTAPKLLIYDNNKRPSGIPDRFSGSKSGTSATLGITGLQTGDEADYYCGTWDSSLSAGVVFGGGTKLTVL
B6: anti-PAR-2 antibody 12D5 (antibody, V domains shown)
VH: QVQLQQSGPGLVKPSQTLSLTCAISGDSVSSNRAAWNWIRQSPSRGLEWLGRTYYRSKWYNDFAVSVRSRITITPDTSKNQFSLQLNSVTPEDTAVYYCARDRNSGYYYYGLDVWGQGTTVTVSS
VL: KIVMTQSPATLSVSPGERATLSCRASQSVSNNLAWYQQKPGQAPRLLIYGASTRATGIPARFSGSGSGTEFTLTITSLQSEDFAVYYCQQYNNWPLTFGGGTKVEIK
B7: anti-PAR-2 antibody 13F2 (antibody, V domains shown)
VH: B6 VH with F63H, R68K, T94K
VL: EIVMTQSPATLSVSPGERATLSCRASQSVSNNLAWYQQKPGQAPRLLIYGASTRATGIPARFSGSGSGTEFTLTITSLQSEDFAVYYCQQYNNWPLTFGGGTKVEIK

Columns and labels:
[1] = target: PAR-2 (on the cells of the FLIPR Ca2+ mobilization assay); assay: cell-based or functional assay
[2] = target: T1, cell surface expressed human PAR-2; assay: KinExA, cells expressing human PAR-2, averaged for N=5 experiments; antibody 1A1; N=5 experiments
From the text: This example describes the analysis of the binding properties of PAR-2 antigen-binding proteins to cell surface expressed PAR-2 utilizing a Kinetic Exclusion Assay which measures binding events in solution phase and can be used to calculate KD, Kₒₙ and Koff (KinExA®; Sapidyne Instruments, Boise, Id.), substantially as described previously by Xie et. al. J. Imm, Methods 304:1 (2005) and Rathanaswami et. al. Anal. Biochem. 373:52 (2008). Briefly, serial dilutions of cells expressing human PAR-2 (for example, CHO transfectants expressing human PAR-2 at the cell surface, obtainable by transfecting CHO cells with human full length PAR-2 cDNA encoding a polypeptide of SEQ ID NO:2) and control cells (i.e., non-transfected CHO cells) in a modified DMEM medium (phenol red free containing 10% heat inactivated FBS, 0.1 mM MEM non-essential amino acids, 1 mM sodium pyruvate, penicillin-streptomycin-glutamine, and 0.025% (w/w) sodium azide) are incubated with set amounts of antibody for 24 to 36 hours at 4 C with rotation. […] The free mAb is measured by KinExA® using the appropriate capture beads and Cy5-conjugated anti-human secondary antibodies, as described by Rathanaswami et al. Biochem Biophys Research Commun:1004 (2005). […]
The KD of certain PAR-2 antibodies was determined in this manner.

[3] = target: T2, clipped N-terminal PAR-2/Fc polypeptide (human); assay: Western blot; by the footnote, an upstream binder binds only the full-length PAR-2/Fc
T2 construct: also called truncated amino-terminal PAR-2-Fc; cleaved PAR-2/Fc
From the text: To analyze binding to uncleaved versus cleaved PAR-2, various amounts of purified uncleaved and clipped N-terminal PAR2-Fc are subjected to SDS-PAGE using 8-16% polyacrylamide gradient gels (Novex gels, Invitrogen Life Technologies) in a Tris-Glycine buffer system. Gel lanes containing See Blue standards (Novex, Invitrogen Life Technologies) for molecular weight identification are also included. Following electrophoresis, proteins are transferred from gels onto nitrocellulose membranes using a Novex XCell II Blot Module (Invitrogen Life Technologies). Membranes are blocked with 1:1, Odyssey blocking buffer, OBB, (LI-COR Biosciences):TBS (Tris Buffer Saline) overnight at 4 C with shaking. Antibodies to be analyzed are diluted in 1:1 OBB:TBS at a desired final concentration for 1 hr at room temperature. Membranes are washed extensively with 0.1% Tween 20 in TBS (3-4 changes of 100 ml over ˜1 hr). Membranes are then exposed to the appropriate secondary antibody-Alexa680 (Molecular Probes, Invitrogen Life Technologies) conjugate (goat anti-rabbit IgG, or goat anti-mouse IgG) diluted 1:5000 in 1:1 (OBB:TBS) for 1 hr at room temperature. Membranes are washed as described above, and if desired, analyzed using a LI-COR Odyssey Infrared Imaging System (LI-COR Biosciences).
Several PAR-2 antibodies were tested in different assay formats; Table 2 summarizes the results. IC₅₀ values were determined in a FLIPR assay for Ca2+ mobilization described previously; binding to the upstream region of the cleavage site versus the downstream region of the cleavage site was determined using the Western blot assay described previously.

Sequence of PAR-2 (on the cells of the FLIPR Ca2+ mobilization assay) (P55085 whole entry): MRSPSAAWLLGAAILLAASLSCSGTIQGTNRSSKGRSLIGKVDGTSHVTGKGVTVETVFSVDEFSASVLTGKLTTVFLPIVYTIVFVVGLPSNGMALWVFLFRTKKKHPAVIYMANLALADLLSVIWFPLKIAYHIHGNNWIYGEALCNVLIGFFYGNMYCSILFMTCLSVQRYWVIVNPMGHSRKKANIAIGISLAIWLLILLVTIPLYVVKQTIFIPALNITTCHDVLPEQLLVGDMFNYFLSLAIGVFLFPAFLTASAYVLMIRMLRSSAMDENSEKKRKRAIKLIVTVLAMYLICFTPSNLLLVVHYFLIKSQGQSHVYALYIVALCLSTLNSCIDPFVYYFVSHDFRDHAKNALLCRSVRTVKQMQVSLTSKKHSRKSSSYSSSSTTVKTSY

| Binder | IC50, FLIPR assay for Ca2+ mobilization [1] | Kd [2] | binding result [3] |
| --- | --- | --- | --- |
| B1 | > 1000 nM |  |  |
| B2 | 2 nM | 0.0628 nM | no binding |
| B3 | 3 nM |  | no binding |
| B4 | 3 nM |  | no binding |
| B5 | > 1000 nM |  |  |
| B6 | > 1000 nM |  |  |
| B7 | > 1000 nM |  |  |
